Source: the supplement of paper PMC10567573

B1: C8orf76 (parent)
chain: YCAKLCEPQWFYEETESSDDVEVL

Variants of: B1
Assay: protein stability index of a GFP-peptide fusion (GPS, HEK-293T) (PSI 1-6); higher = more stable
Details: c terminus: a fixed tail appended
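Further: lentivirally expressed fusions sorted by FACS into six bins by GFP to DsRed ratio, PSI derived from sequencing read proportions per bin multiplied by bin number.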

Protein stability index: each site, then its substitutions
F11: D 4.38 | E 4.83 | L 3.56 | N 3.48 | G 3.43 | A 3.01 | M 3.28 | H 2.71 | K 3.96 | C 3.41 | I 2.75
P8: M 2.32 | C 1.73 | T 2.55 | F 1.94 | G 2.56 | E 3.1 | H 2.12 | S 2.62 | V 2.19 | N 2.69 | I 1.58 | L 1.67 | D 3.18 | Q 2.55 | R 1.86 | K 1.62 | W 2.27 | A 2.09 | Y 1.76
E7: Q 3.27 | H 2.57 | R 2.6 | P 2.46 | K 2.78 | Y 2.2 | G 2.43 | N 2.67 | F 2.33 | C 2.69 | D 3.69 | M 2.49 | V 2.3 | T 2.5 | L 2.83 | A 2.27 | S 2.82 | W 1.63 | I 2.32
C6: T 1.84 | E 3.63 | K 2.93 | Q 3.02 | Y 2.29 | R 2.21 | P 2.86 | H 2.32 | G 1.52 | I 2.88 | F 2.41 | A 2.95 | D 2.93 | V 3.3 | S 2.18 | M 2.79 | N 2.36 | L 2.96 | W 1.77
C2: W 2.82 | T 3.22 | V 2.1 | Y 2.87
L5: P 2.15 | Y 3.33 | W 1.28 | G 2.99 | A 2.62 | N 3.31 | Q 2.63 | M 2.97 | F 2.29 | R 2.44 | H 2.72 | E 2.94 | I 1.98 | K 2.05 | C 3.03 | T 2.78 | D 3.42 | V 2.4 | S 2.04
K4: D 3.69 | M 2.48 | Y 3.2 | F 2.56 | Q 3.46 | R 2.54 | P 2.43 | E 4.61 | T 2.94 | H 2.84 | W 2.08 | N 4.3 | C 2.96 | V 3.05 | L 2.71 | G 1.98 | I 2.29 | A 2.54 | S 2.01
A3: K 3.07 | D 3.48 | G 2.01 | V 3.04 | R 1.75 | H 2.59 | N 2.74 | S 2.78 | L 2.78 | P 1.71 | I 2.51 | Q 2.28 | E 4.06 | F 2.3 | T 2.45 | M 3.1 | C 2.7 | W 1.95 | Y 2.83
Q9: L 2.14 | F 2.19 | A 2.46 | D 3.86 | N 2.17 | T 2.29 | E 3.13 | I 2.22 | Y 2.66 | P 2.03 | K 2.09 | G 2.15 | H 2.13 | M 1.88 | S 2.4 | V 1.74 | W 1.04 | C 1.93 | R 1.41
W10: T 4.34 | D 4.5 | H 3.52 | N 4.07 | K 4.15 | S 4.48 | L 3.04 | E 3.98 | Q 4.45 | P 3.92 | C 3.87 | I 3.45 | F 3.22 | Y 2.71 | A 4.04 | V 3.35 | G 4.02 | R 4.74 | M 3.51
